From patent US11628159B2, “Cell-protective compounds and their use” (ETH ZURICH, priority 2017, dated 2023)

Target: T1, GRK2 (Homo sapiens, UniProt P25098)
T1 construct: fused on or other part: hexahistidine tag
T1 sequence (P25098 1-669 limits assumed): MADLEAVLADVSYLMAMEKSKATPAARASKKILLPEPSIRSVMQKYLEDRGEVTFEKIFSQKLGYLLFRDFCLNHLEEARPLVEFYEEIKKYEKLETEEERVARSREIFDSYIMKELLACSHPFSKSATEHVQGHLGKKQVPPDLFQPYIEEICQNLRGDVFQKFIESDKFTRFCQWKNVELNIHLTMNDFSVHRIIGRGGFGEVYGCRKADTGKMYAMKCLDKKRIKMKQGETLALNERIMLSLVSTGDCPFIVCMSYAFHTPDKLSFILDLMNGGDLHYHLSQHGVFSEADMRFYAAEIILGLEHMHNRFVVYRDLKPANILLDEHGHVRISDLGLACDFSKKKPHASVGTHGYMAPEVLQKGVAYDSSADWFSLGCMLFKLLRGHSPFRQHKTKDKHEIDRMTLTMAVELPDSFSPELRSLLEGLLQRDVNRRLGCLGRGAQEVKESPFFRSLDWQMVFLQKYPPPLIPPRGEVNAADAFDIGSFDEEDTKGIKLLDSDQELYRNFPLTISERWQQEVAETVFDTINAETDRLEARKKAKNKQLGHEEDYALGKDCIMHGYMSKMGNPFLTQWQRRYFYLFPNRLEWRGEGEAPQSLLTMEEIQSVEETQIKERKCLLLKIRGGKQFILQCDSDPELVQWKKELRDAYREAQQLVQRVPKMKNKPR
Test: In vitro phosphorylation assay: GRK2-mediated phosphorylation of phosducin
Format: biochemical
Conditions: n=6-7; read-out: IC50, inhibition of GRK2-induced phosducin phosphorylation
Description: Recombinant human GRK2 protein and GRK2-S670A protein was expressed in and purified from Spodoptera frugiperda (Sf9) cells by the baculoviral expression system. The cDNAs encoding hexahistidine-tagged human GRK2 (ADRBK1) GRK2-S670A were subcloned into the pFastBac1 expression plasmid (INVITROGEN™, THERMO FISHER SCIENTIFIC®, Waltham, Mass., USA) using the Sal I/Hind III restriction sites, recombinant baculovirus was generated by the Bac-To-Bac Baculovirus expression system (THERMO FISHER SCIENTIFIC®, Waltham, Mass., USA). Sf9 cells were infected with recombinant baculoviruses at an MOI of 2-3, 48 h after infection cells were harvested by centrifugation, lysed with lysis buffer (300 mM NaCl, 50 mM HEPES, pH 7.5 supplemented with 1% NP40, 1 mM PMSF and protease inhibitor cocktail) and applied to Ni-NTA chromatography. After overnight incubation at 4° C., unbound proteins were removed by washing with lysis buffer (20× column volumes) followed by 1× column volume of 30 mM imidazole-containing lysis buffer. Bound GRK2 was eluted by 300 mM imidazole in lysis buffer, desalted by PD10 column chromatograpy, supplemented with 20% glycerol and stored at −80° C. for further use. […]

IC50: 950 nM
B1: RKIP: raf kinase inhibitor protein, a dual-specific GRK2 and Raf kinase inhibitor (protein, UniProt P30086 2-187, looked up)
Phosphatidylethanolamine-bindi …: PVDLSKWSGPLSLQEVDEQPQHPLHVTYAGAAVDELGKVLTPTQVKNRPTSISWDGLDSGKLYTLVLTDPDAPSRKDPKYREWHHFLVVNMKGNDISSGTVLSDYVGSGPPKGTGLHRYVWLVYEQDRPLKCDEPILSNRSGDHRGKFKVASFRKKYELRAPVAGTCYQAEWDDYVPKLYEQLSGK
